Test results published in PMC7714896 (Signal Transduction and Targeted Therapy, 2020).

Biological target: T1, receptor-binding domain (RBD) of SARS-CoV-2 spike protein (SARS-CoV-2, UniProt P0DTC2)
T1 construct: source: bought: GenScript
Assay: SPR; BIAcore 3000; […], flow 15 μl/min, […]
Conditions: both partners purified

B1: recombinant human CD147 extracellular fragment (His-CD147) (domain or fragment)
chain: EPGTVFTTVEDLGSKILLTCSLNDSATEVTGHRWLKGGVVLKEDALPGQKTEFKVDSDDQWGEYSCVFLPEPMGTANIQLHGPPRVKAVKSSEHINEGETAMLVCKSESVPPVTDWAWYKITDSEDKALMNGSESRFFVSSSQGRSELHIENLNMEADPGQYRCNGTSSKGSDQAIITLRVRSHLAAL
Question: How did the Kd turn out when B1 was run?
Answer: 185 nM
